Test results published in the supplement of paper PMC9732359.
± gives the uncertainty stated by the source.

Test: protein stability index of a GFP-peptide fusion (yeast GPS) (PSI 1-4); higher = more stable; sorted into four equal gates, so the index is relative within each strain
Procedure, shortened: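 Peptides tiling yeast proteins in 17-residue segments were fused downstream of GFP, with Cherry expressed from the same plasmid. As a pooled library in yeast, mid-log cultures grown in leucine-free medium were sorted into four equal gates by GFP/Cherry fluorescence ratio. Gate plasmids were PCR-amplified and Illumina-sequenced, and barcodes linked reads to strains. Each peptide received a protein stability index equal to the sum of each gate's read frequency times its gate number.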

Row | Sequence | protein stability index (doa10∆) | protein stability index (pdr5∆) | protein stability index (san1∆) | protein stability index (ubr1∆)
1 | IVSKEYEKNFEATLESK [ESC2] | 2.98 ± 0.24 | 3.08 ± 0.17 | 2.9 ± 0.088 | 2.88 ± 0.18
2 | QQDQPEQSEQPEQHQDK [RPN10] | 3.04 ± 0.059 | 3.14 ± 0.054 | 2.83 ± 0.048 | 3.13 ± 0.058
3 | VANQTSATFLRIVGSEL [RPT2] | 2.45 ± 0.12 | 2.29 ± 0.096 | 2.15 ± 0.15 | 2.13 ± 0.082
4 | SLLLSSVKESTGMSSMS [SRB4] | 1.96 ± 0.081 | 2.21 ± 0.078 | 1.57 ± 0.21 | 1.22 ± 0.13
5 | IGKDTFVTRKSRKRAKK [PRP8] | 3.01 ± 0.092 | 2.84 ± 0.096 | 2.87 ± 0.078 | 3.25 ± 0.049
6 | KRINFEKIKDIHNTKLP [POP1] | 2.42 ± 0.17 | 3.06 ± 0.13 | 2.87 ± 0.28 | 2.54 ± 0.076
7 | RDALRNIKNTNEEATPI [RRP6] | 2.76 ± 0.07 | 2.99 ± 0.081 | 2.86 ± 0.06 | 2.94 ± 0.064
8 | NKYPELLGKDNEDDALI [AAR2] | 3.33 ± 0.1 | 3.19 ± 0.089 | 3.33 ± 0.051 | 3.02 ± 0.11
9 | ILEDYCYFRDFEYCRID [ISW2] | 2.56 ± 0.13 | 1.35 ± 0.077 | 1.4 ± 0.11 | 1.35 ± 0.038
10 | RYENNDDDERVEYNLFT [BRN1] | 3.17 ± 0.1 | 3.27 ± 0.087 | 3.07 ± 0.064 | 3.04 ± 0.043
11 | NNNNTNTQPSASGFGFG [YGR119C/NUP57] | 3.22 ± 0.081 | 2.28 ± 0.059 | 2.51 ± 0.062 | 2.89 ± 0.036
12 | VYYSKRGFKVGLVCADT [SRP54] | 2.41 ± 0.12 | 2.29 ± 0.073 | 2.19 ± 0.098 | 2.5 ± 0.054
13 | PKKALKVKAGVRSANED [RRP43] | 2.84 ± 0.1 | 2.35 ± 0.088 | 2.81 ± 0.069 | 2.41 ± 0.051
14 | LSESPVDFEKFETFLVD [SIN4] | 3.03 ± 0.12 | 2.73 ± 0.21 |  | 2.76 ± 0.21
15 | ERLKVPILVTLVSDSEI [POP6] | 1.55 ± 0.035 | 1.86 ± 0.04 | 1.58 ± 0.066 | 1.66 ± 0.025
16 | LLDKYGKTGLSNMILGS [YML103C/NUP188] | 2.34 ± 0.078 | 2.75 ± 0.11 | 2.26 ± 0.095 | 2.12 ± 0.058
17 | LRQQYEIELKKLPKVYK [SWI1] | 2.04 ± 0.067 | 1.75 ± 0.066 | 2.22 ± 0.12 | 2.75 ± 0.073
18 | LEDPYKYHYKEEWLNTK [CSN9] | 2.88 ± 0.084 | 3.2 ± 0.083 | 2.83 ± 0.065 | 3.09 ± 0.072
19 | KDNECSSFEENNDLESV [RRI2] | 3.13 ± 0.16 | 3.12 ± 0.16 | 3.1 ± 0.17 | 3.34 ± 0.17
20 | SKRYIPSVNDFVIGVII [RRP40] | 2.4 ± 0.054 | 2.66 ± 0.056 | 2.17 ± 0.078 | 2.73 ± 0.054
21 | LRADKLYEKLKQEIMMS [ISW2] | 1.63 ± 0.14 | 1.38 ± 0.18 | 1.78 ± 0.25 | 1.41 ± 0.15
22 | YSLHQIRKDPNNLSNQL [CSE2] | 2.54 ± 0.076 | 2.66 ± 0.071 | 2.65 ± 0.054 | 2.77 ± 0.04
23 | IFKDLVTVFLFMLILAL [COB] | 1.45 ± 0.04 | 1.19 ± 0.033 | 1.12 ± 0.067 | 1.17 ± 0.025
24 | TLIKKKQDEKKSSELEL [SMC2] | 3.24 ± 0.076 | 3.37 ± 0.071 | 3.29 ± 0.047 | 3.05 ± 0.046
25 | TSLSSKDLSNYRKTEGI [YMR153W/NUP53] | 3.12 ± 0.088 | 3.25 ± 0.085 | 3.24 ± 0.062 | 3.35 ± 0.043
26 | RMHLAPASKQGYLITPP [SSN2] | 1.36 ± 0.25 | 1.45 ± 0.24 |  | 1.36 ± 0.13
27 | TPATIVKKPTFTFGQST [YOR098C/NUP1] | 2.84 ± 0.066 | 3.13 ± 0.074 | 3.09 ± 0.058 | 3.43 ± 0.075

Row | Sequence | protein stability index (doa10∆) | protein stability index (pdr5∆) | protein stability index (san1∆) | protein stability index (ubr1∆)
28 | EKPFNENRFQDTLLLLP [POP4] | 1.52 ± 0.11 | 2.58 ± 0.076 | 1.52 ± 0.14 | 2.72 ± 0.1
29 | DSLTQNNNNAPIIIYGT [YOR098C/NUP1] | 2.69 ± 0.047 | 2.93 ± 0.041 | 2.8 ± 0.041 | 2.92 ± 0.038
30 | GTGKPEAIHDMFTYSQE [RPN2] | 2.8 ± 0.16 |  | 3.12 ± 0.071 | 2.72 ± 0.11
31 | LFNKPPSTNAQNVNVPS [YOR098C/NUP1] | 3.15 ± 0.056 | 3.05 ± 0.051 | 3.03 ± 0.046 | 3.12 ± 0.04
32 | RCFSCGKVVGDKWESYL [RPB10] | 1.73 ± 0.14 | 2.11 ± 0.1 | 1.98 ± 0.16 | 
33 | DPNIKVNDTVKIDLASG [RPS4A] | 2.81 ± 0.079 | 2.75 ± 0.063 | 2.73 ± 0.087 | 2.41 ± 0.053
34 | QLKHTKLALAENDTNMN [SMC4] | 3.13 ± 0.079 | 3.12 ± 0.097 | 3.25 ± 0.07 | 3.17 ± 0.048
35 | VKKILPLYARYINVNPQ [ECM29] | 2.43 ± 0.056 | 2.15 ± 0.051 | 3.06 ± 0.051 | 2.72 ± 0.04
36 | TKSHNTVQSWLCDLFVN [NUT1] | 1.55 ± 0.036 | 1.46 ± 0.044 | 1.4 ± 0.09 | 1.54 ± 0.037
37 | LLRLASKSTSMKLSMPP [POP1] | 2.75 ± 0.064 | 2.76 ± 0.065 | 2.69 ± 0.059 | 2.81 ± 0.049
38 | QIKTLPEQYSDILLNER [AAR2] | 2.96 ± 0.077 | 3.24 ± 0.06 | 3.14 ± 0.077 | 2.95 ± 0.072
39 | LIVIDVVEGVTFVVEQL [SNU114] | 1.57 ± 0.044 | 1.92 ± 0.061 | 2.56 ± 0.082 | 2.92 ± 0.04
40 | IATGCKDGRIRIFKITE [YGL100W/SEH1] | 2.22 ± 0.069 | 2.47 ± 0.066 | 2.21 ± 0.094 | 2.43 ± 0.046
41 | QSQLNVTLSQLVSVTST [MED8] | 1.39 ± 0.025 | 1.79 ± 0.026 | 1.44 ± 0.049 | 1.3 ± 0.019
42 | DIAFVLNNLPYKNEDVT [YCS4] | 2.61 ± 0.053 | 3.08 ± 0.051 | 2.94 ± 0.037 | 3 ± 0.065
43 | KQERSKQERLKENEESL [PRP28] | 3.21 ± 0.2 | 3.62 ± 0.17 | 3.22 ± 0.13 | 3.31 ± 0.11
44 | ALDGDLIELLEKLDVSR [YCG1] | 3.27 ± 0.25 | 3.42 ± 0.2 | 3.16 ± 0.13 | 2.73 ± 0.2
45 | YESRNVAKRRFEYSKYR [RRP6] | 3.16 ± 0.072 | 3.4 ± 0.087 | 3.29 ± 0.041 | 3.3 ± 0.079
46 | SKQDLIHSLIPVAKWFV [SIN4] | 2.4 ± 0.076 | 2.99 ± 0.054 | 2.9 ± 0.061 | 2.78 ± 0.08
47 | TPSNIRSLCEVLVYDDK [RPC34] | 1.7 ± 0.077 | 1.84 ± 0.078 | 1.26 ± 0.11 | 1.59 ± 0.086
48 | SKNAQFICTTFRTDMLQ [SMC3] | 2.11 ± 0.074 | 1.49 ± 0.075 | 1.5 ± 0.13 | 1.05 ± 0.073
49 | VKKTGENEISSLLAMHK [CDC53] | 2.75 ± 0.3 | 2.54 ± 0.12 | 2.05 ± 0.3 | 2.87 ± 0.25
50 | EVLNRVASRHPSESEHP [YDL116W/NUP84] | 2.94 ± 0.15 | 3.17 ± 0.11 | 2.99 ± 0.084 | 3.24 ± 0.075
51 | ITSNHKSSVPGSAELRN [RPN3] | 2.69 ± 0.087 | 3.25 ± 0.074 | 2.67 ± 0.069 | 2.63 ± 0.08
52 | AHAQHQPSQQPQQAQQQ [GAL11] | 2.92 ± 0.041 | 3.03 ± 0.037 | 3 ± 0.032 | 2.98 ± 0.031
53 | AFNQVEIRPEMLGHYLG [RPS15] | 2.92 ± 0.12 | 3.09 ± 0.19 | 3.44 ± 0.12 | 3.19 ± 0.15
